To fix the notation:
B1: RSPH3 (parent)
chain: MTVKPAKAASLARNLAKRRRTYLG
B2: TRIM35 (parent)
chain: DKELLCCSCQADPRHQGHRVQPVK
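Note: lentivirally expressed fusions sorted by FACS into six bins by GFP to DsRed ratio, PSI derived from sequencing read proportions per bin multiplied by bin number.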

In the first data set the parent is B1. Briefly: protein stability index of a GFP-peptide fusion (GPS, HEK-293T) (PSI 1-6); higher = more stable. As to conditions: c terminus: a fixed tail appended.
As to MTVKQAKAASLARNLAKRRRTYLG [P5Q], the protein stability index was found to be 2.63. For MTVKLAKAASLARNLAKRRRTYLG [P5L], the protein stability index was found to be 3.36. Take MTVKTAKAASLARNLAKRRRTYLG [P5T]: the protein stability index is 3.29. Same read-out and setting: with MTVKPAYAASLARNLAKRRRTYLG [K7Y] the figure was 2.23; with MTVKPADAASLARNLAKRRRTYLG [K7D], 3.25; with MTVKPARAASLARNLAKRRRTYLG [K7R], 2.96. For the variant MTVKPAHAASLARNLAKRRRTYLG [K7H], the protein stability index was found to be 3.82.

Consider MTVKPAKAASLARNLAKRRRRYLG [T21R], for which the protein stability index was found to be 3.18. Take MTVKPAKAASLARNLAKRRREYLG [T21E]: the protein stability index was 3.47.

With MTVKPAKAASLARNLAKRRRYYLG [T21Y], the protein stability index amounted to 2.13. The same measure, in the same setting: the value for MTVKPAKAASLARNLAKRRRPYLG [T21P] was 2.92; that for MTVKPAKAASLARNLAKRRRMYLG [T21M] was 2.7. With MTVKPAKAASLARNLAKRRRIYLG [T21I], the protein stability index was 2.54. As for MTVKPAKAASLARNLAKRRRGYLG [T21G], the protein stability index was found to be 2.83. As to MTVKPAKAASLARNLAKRCRTYLG [R19C], the protein stability index came out at 1.6. Regarding MTVKPAKAASLARNLAKRQRTYLG [R19Q], the protein stability index worked out at 2.62.

On to MTVKPAKAASLARNLAKRNRTYLG [R19N], for which the protein stability index is 2.37. Consider MTVKPAKAASLARNLAKRHRTYLG [R19H], for which the protein stability index was determined as 1.51. On the same count and under the same terms, the value for MTVKPAKAASLARNLAKRFRTYLG [R19F] was 1.23; that for MTVKPAKAASLARNLAKRPRTYLG [R19P] was 1.86. Take MTVKPAKAASLARNLAKRMRTYLG [R19M]: the protein stability index was found to be 3.63. Regarding MTVKPAKAASLARNLAKRGRTYLG [R19G], the protein stability index is 2.85. Take MTVKPAKAASLTRNLAKRRRTYLG [A12T]: the protein stability index was 3.28. MTVKPAKAASLYRNLAKRRRTYLG [A12Y]: the protein stability index came out at 2.19. For the variant MTVKPAKAASLIRNLAKRRRTYLG [A12I], the protein stability index stood at 2.69.

Regarding MTVKPAKAASLFRNLAKRRRTYLG [A12F], the protein stability index is 1.94. The same measure, in the same setting: with MTVKPAKAASLHRNLAKRRRTYLG [A12H] the figure was 2.17.

As for MTVKPAKAASLDRNLAKRRRTYLG [A12D], the protein stability index stood at 3.94.

For MTVKPAKAASLGRNLAKRRRTYLG [A12G], the protein stability index is 3.21. For MTVKPAKAASLNRNLAKRRRTYLG [A12N], the protein stability index turned out to be 2.49. Take MTVKPAKAASLQRNLAKRRRTYLG [A12Q]: the protein stability index is 3.11.

Turning to WTVKPAKAASLARNLAKRRRTYLG [M1W], the protein stability index worked out at 2.31. Still for that read-out and setting: the value for DTVKPAKAASLARNLAKRRRTYLG [M1D] was 2.85; that for NTVKPAKAASLARNLAKRRRTYLG [M1N] was 3.88. Still for that read-out and setting: with PTVKPAKAASLARNLAKRRRTYLG [M1P] the figure was 3; with QTVKPAKAASLARNLAKRRRTYLG [M1Q], 3.95; with MTVKPAKAASLAQNLAKRRRTYLG [R13Q], 3.48.

For MTVKPAKAASLAHNLAKRRRTYLG [R13H], the protein stability index was found to be 2.42. With MTVKPAKAASLAGNLAKRRRTYLG [R13G], the protein stability index is 2.86. Still for that read-out and setting: with MTVKPAKAASLAFNLAKRRRTYLG [R13F] the figure was 2.29. Regarding MTVKPAKAASLAINLAKRRRTYLG [R13I], the protein stability index was found to be 2.7.

Take MTVKPAKAASLALNLAKRRRTYLG [R13L]: the protein stability index was determined as 2.36. As to MTVKPAKAASLAENLAKRRRTYLG [R13E], the protein stability index was found to be 3.08. The same measure, in the same setting: with MTVKPAKAASLAPNLAKRRRTYLG [R13P] the figure was 2.48.

On to MTVKPAKAASLARMLAKRRRTYLG [N14M], for which the protein stability index was 2.39. Turning to MTVKPAKAASLARHLAKRRRTYLG [N14H], the protein stability index was found to be 1.94. Turning to MTVKPAKAASLARGLAKRRRTYLG [N14G], the protein stability index turned out to be 3.21. Turning to MTVKPAKAASLARKLAKRRRTYLG [N14K], the protein stability index worked out at 2.4.

Take MTVKPAKAASLARNLAHRRRTYLG [K17H]: the protein stability index turned out to be 2.99. Regarding MTVKPAKAASLARNLAERRRTYLG [K17E], the protein stability index worked out at 2.99.

Regarding MTVKPAKAASLARNLAIRRRTYLG [K17I], the protein stability index is 2.46. Regarding MTVKPAKAASLARNLASRRRTYLG [K17S], the protein stability index is 2.91. With MTVKPAKAASLARNLAPRRRTYLG [K17P], the protein stability index is 3.02. As for MTVKPAKAASLARNLAGRRRTYLG [K17G], the protein stability index amounted to 3.5. Same read-out and setting: the value for MTVKPAKAASLARNLATRRRTYLG [K17T] was 3; that for MTVKPAKAASLARNLALRRRTYLG [K17L] was 2.61; that for MTVKPAKALSLARNLAKRRRTYLG [A9L] was 1.79. Turning to MTVKPAKAESLARNLAKRRRTYLG [A9E], the protein stability index came to 3.65.

On to MTVKPAKAMSLARNLAKRRRTYLG [A9M], for which the protein stability index was 2.2. For the variant MTVKPAKARSLARNLAKRRRTYLG [A9R], the protein stability index was found to be 2.42. For the variant MTVKPAKAISLARNLAKRRRTYLG [A9I], the protein stability index is 1.79. Take MTVKPAKAYSLARNLAKRRRTYLG [A9Y]: the protein stability index is 3.04. For MTVKPAKASSLARNLAKRRRTYLG [A9S], the protein stability index was 2.95. The same measure, in the same setting: the value for MTVKPAKAWSLARNLAKRRRTYLG [A9W] was 1.9; that for MTVKPAKANSLARNLAKRRRTYLG [A9N] was 3.58; that for MTVKPAKADSLARNLAKRRRTYLG [A9D] was 2.9. For the variant MTVKPAKAASGARNLAKRRRTYLG [L11G], the protein stability index came to 3. On to MTVKPAKAASYARNLAKRRRTYLG [L11Y], for which the protein stability index was 3.01.

On to MTVKPAKAASEARNLAKRRRTYLG [L11E], for which the protein stability index is 4.03. Regarding MTVKPAKAASFARNLAKRRRTYLG [L11F], the protein stability index was 2.19. MTVKPAKAASKARNLAKRRRTYLG [L11K]: the protein stability index was determined as 3.15.

As to MTVKPAKAASSARNLAKRRRTYLG [L11S], the protein stability index was 3.29.

Turning to MTVKPAKAASLARNTAKRRRTYLG [L15T], the protein stability index is 3.35. On the same count and under the same terms, with MTVKPAKAASLARNNAKRRRTYLG [L15N] the figure was 3.56; with MTVKPAKAASLARNHAKRRRTYLG [L15H], 3.32. Regarding MTVKPAKAASLARNEAKRRRTYLG [L15E], the protein stability index was 4.42.

Another data set covers variants of B2. The data set is described as above. The following applies: c terminus: a fixed tail appended.
As for DKELLICSCQADPRHQGHRVQPVK [C6I], the protein stability index was determined as 2.61. Still for that read-out and setting: with RKELLCCSCQADPRHQGHRVQPVK [D1R] the figure was 2.71. For DKELLCCSCQADPRHQGHREQPVK [V20E], the protein stability index was 4.04.

Regarding DKELLCCSCQADPRHQGHRCQPVK [V20C], the protein stability index worked out at 4.46. As to DKELLCCSEQADPRHQGHRVQPVK [C9E], the protein stability index is 4.87. In the case of DKELLCCSCQADPRHQGHRVQPSK [V23S], the protein stability index came out at 3.36. With DKELLCCSCQADPRHQGHRVPPVK [Q21P], the protein stability index was found to be 3.56. Regarding DKELLCCSCQADPRHQGHRVQPVF [K24F], the protein stability index was determined as 3.79. For the variant DKEYLCCSCQADPRHQGHRVQPVK [L4Y], the protein stability index stood at 3.8. As to DKEELCCSCQADPRHQGHRVQPVK [L4E], the protein stability index is 3.41. As for DKELLCCSCQADPRHQGMRVQPVK [H18M], the protein stability index is 3.97.

Turning to DKELLCCSCQADPNHQGHRVQPVK [R14N], the protein stability index stood at 4.13. Consider DKELLCCSCQADPRHQGHFVQPVK [R19F], for which the protein stability index stood at 2.66. Turning to DKELLCCSCQADPRHQGHQVQPVK [R19Q], the protein stability index stood at 3.67. Take DKELLCCSCQWDPRHQGHRVQPVK [A11W]: the protein stability index was 2.84. As to DKELLCCSCQKDPRHQGHRVQPVK [A11K], the protein stability index came out at 4.3. On the same count and under the same terms, with DKELLCCICQADPRHQGHRVQPVK [S8I] the figure was 2.64. On to DKELLCCSCQADPRHQGHRVQLVK [P22L], for which the protein stability index was 2.84.

The values above are taken from the supplement of paper PMC10567573.
